Assay: yeast display, Sf9 membrane polyspecificity reagent, FACS + sequencing; frameworks hold sequencing errors
In short: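 After 36–48 hours of galactose induction, yeast (Saccharomyces cerevisiae BJ5465) displaying a synthetic nanobody library were stained at 4 °C for 1 hour with 10% biotinylated, detergent-solubilized Sf9 membrane reagent. Streptavidin microbeads enriched the stained cells before FACS sorting into low and high (top ~1%) gates on anti-HA and streptavidin fluorescence. Each clone's polyreactivity label reflects its gate of origin.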

With “QVQLQESVGGLVQAGGSLRLSCAASGNIFPTDRMGWYRQAPGKELEFVATNSHGGSTNYADSVKGRFTISRDNAKNTVYLQMNSLKPEDTAVYYCAVWSLGRWRHYYWGQGTQVTVSS” as the sequence, how does the “polyreactivity (PSR sort gate)” value read?
Its value is “low polyreactivity”.

For “QVQLQESVGGLVQAGGSLRLSCAASGTIFRISDMGSYRQAPGKEREFVAAITYGANTYYADSGKGRFTISRDNAKNTVYLQMNSLKPEDTAVYYCAVPPVKETILDYWGQGTQVTVSS”, which “polyreactivity (PSR sort gate)” value is on record?
Its value is “low polyreactivity”.

Which “polyreactivity (PSR sort gate)” value does the source give for “QVQLQESVGGLVQAGGSLRLSCAATGTIFTDRFMGWYRQAPGKERELVAGISQGTSTNYADSVKGRFTISRDNAKNTVYLQMNSLKPEDTAVYYCAADLSTGNTLPYWGQGTQVTVSS” here?
Its value is “high polyreactivity”.

With “QVQLQESVVGLVQAGGSLRLSCAASGNIIPTDRMGWYRQAPGKELEFVATISHGGSTNYADSVKGRFTISRDNAKNTVYLQMNSLKPEDTAVYYCAVWSLGSWRHYYWGQGTQVTVSS” as the sequence, how does the “polyreactivity (PSR sort gate)” value read?
The value was “low polyreactivity”.

Which “polyreactivity (PSR sort gate)” value does the source give for “QVQLQGSGGGLVQAGGSLRLSCAASGYIFQNVPMGWNRQAPCKERELVAGIDNGTSTNYADSVNGRFTISRDNAKNTVYLQMNSLKPEDTAVYYCAAAGQADDTLGYWGQGTQVTVSS” here?
The value was “low polyreactivity”.

With “QVQLQGSGGGLVQAGGSLRLSCAASGYIFQNVPMGWNRQAPGKERELVAGIDNGTSTNYADSVNGRFTISRDNAKNTVYLQMNSLNPVDTAVYYCAAAGQADDTLGYWGQGTQVTVSS” as the sequence, how does the “polyreactivity (PSR sort gate)” value read?
The value was “low polyreactivity”.

Which “polyreactivity (PSR sort gate)” value does the source give for “QVQLQGSGGGLVQSGGSLRLSCAASGKIFDADIMGWYRQAPGKESELVASITHGGSTNYADSVKGRFTISRDNAKNNVYLQMNSLIQEDTAVYYCAAIAYPDIPTYFDYDSDCFYWSQGTQVTVSS” here?
The value was “high polyreactivity”.

Which “polyreactivity (PSR sort gate)” value does the source give for “QVQLQLSGGDLVQAGRSLRLSCAASGTIYGLTSMGWYRQAQAKEREFVAAITDGGKTNYADSVKGRFTISRDNAKNTVYLQMIRLKPEDTAVYYCAVLFSDDAYYAYWGQGTQVTVSS” here?
The value was “low polyreactivity”.

For “QVQLQVRGGDLVQAGGSLRLSCAASGTIYRLTTMGWYRQAPGKEREFVAAITDGGNTNYADSVKGRFTISRDNAKNTVYLQMICLKPEDTAVYYCAVLFSDDAYYAYWGQGTQVTVSS”, which “polyreactivity (PSR sort gate)” value is on record?
Its value is “low polyreactivity”.

With “QVQLQVSGGHLVQAGGSLRLSCAASGTIYGLTSMGWYSQAPGKEREFVAAITDGGNTNYADSVKGRFTISRDNAKNTVYLQMISLKPEDTSVYYCAFLFSDDAYFAYWGQGTQVTLSS” as the sequence, how does the “polyreactivity (PSR sort gate)” value read?
The value was “low polyreactivity”.

With “QVQLRESGAGGRQPAPELRGERQYFYWSADGLVSQPPGKEREFVAGIDRGTITNYADSVRGRFTISRDNAKNTVYLQMNSLKPEDTAVYYCNAEYRRRPKLGDEDEYWGHGTQVTVSS” as the sequence, how does the “polyreactivity (PSR sort gate)” value read?
Its value is “high polyreactivity”.

Which “polyreactivity (PSR sort gate)” value does the source give for “QVQLVASAAGLVQAVGSLRLSCAASASTIGYYAMGWSRQAPGKERELVAAISWSGGSTYYADSVKGRFTISRDNAKNTVYLQMNSLKPEDTAVYFCAADTYPDYYLVEYYYWGQGTQVTVSS” here?
Its value is “low polyreactivity”.

With “QVQLVASGGGLVQAGGSLRLSFAASGRNFAYNTMGWYRQAPGKERELVAAITWSGGGKYYADSVKGRFTISRDNAKNTVYLHMNSLKPEDTAVYYCAVVYASPRARYRYYYWGQGTQVTVSS” as the sequence, how does the “polyreactivity (PSR sort gate)” value read?
Its value is “low polyreactivity”.

Which “polyreactivity (PSR sort gate)” value does the source give for “QVQLVASGGRLVQAGGSLRLSCASSGSIFGWYAMGWYRQAPGKERELVAVITSGGSTYYADSVKGRFTISRDNAKNTVYLQMNSLKPVDTAVYYCNARYHAGYKGYNYWGQGTQVTVSS” here?
Its value is “high polyreactivity”.

With “QVQLVDSAGGLVQAGGSLRLSCAASGLTFPPNAMGWYRQAPGKEREFVAVISSGGGSTYYADSVKGRFTISRDNAKNTVYLQMNSLKPEDTAVYYCATEYQDGDTEYYYWGQGTQVTVSS” as the sequence, how does the “polyreactivity (PSR sort gate)” value read?
Its value is “low polyreactivity”.

With “QVQLVDSCGGLVQAGGSLSLSCAASGRTFTRYAMGWYRQAPGKERELVASITNGGGTYYADSVKGRFTISRDNAKNTVYLQMNSLKPEDTAVYYCAKAERVTSHIYYSWGQGTQVTVSS” as the sequence, how does the “polyreactivity (PSR sort gate)” value read?
Its value is “low polyreactivity”.

Which “polyreactivity (PSR sort gate)” value does the source give for “QVQLVDSGAGLVQAGGSLRLSCPASGRIFAVNAMGWYRKAPGKERELVAAINGGGSTNYADSVKGRFTISRDNAKNTVYLQMNSLKPQDTAVYYCAADVGWRSQTRGYYWGQGTQVTVSS” here?
Its value is “high polyreactivity”.

For “QVQLVDSGGAIVQAGGSLRLSCAASGRTYHRNSKGWYRQAPGKERELVAAITGDGRTNYADSVKGRFTISRDNAKNTVFLPINSLKPEDTAVYYCAATFGFFYYHYDYWGQGTQVTVSS”, which “polyreactivity (PSR sort gate)” value is on record?
Its value is “low polyreactivity”.

For “QVQLVDSGGGIGQAGASLRLSCAASGRNFAVYAIGWYRQAPGKERELVAAITRNGGSTYADSVKGRFTISRDNAKNTVYFQMNSLKPDDTAVYYCNAVAYIYSYAYPPYWGREHLNYWGQGTQLTVSS”, which “polyreactivity (PSR sort gate)” value is on record?
Its value is “low polyreactivity”.

For “QVQLVDSGGGLFQAGGSHRLSFAASGSILRSNAMGWYRQAPGKERELVAVINGSGGRTYYADSVKGRFTISRDNAKNTVYLQMNSLKPEDTAVYYCNADPGGRYPRRGYAHEGDYWGQGTKVTVSS”, which “polyreactivity (PSR sort gate)” value is on record?
The value was “low polyreactivity”.

Which “polyreactivity (PSR sort gate)” value does the source give for “QVQLVDSGGGLVHAGGSLRLSCAASGRTFFINTMGWYRQPPGKEREFVAAITWSAGRTYYADSVKGRITISRDNAKNTVYLQMISLKPEDTAVYYCAAALDGHTFPFYYWGQGTQVTVSS” here?
The value was “low polyreactivity”.

With “QVQLVDSGGGLVHAGGSLSLSCAASGRIFSHYALGWYRQAPGKERELVAAISSRGGRTYYADSVKGRFTISRDNAKNTVYLQMNSLKPEDPAVYYCAAVIRSVYSYYEYDYWGQCTQVTVSS” as the sequence, how does the “polyreactivity (PSR sort gate)” value read?
Its value is “high polyreactivity”.

For “QVQLVDSGGGLVQAGASLRLSCAASGIIFWSYTMGWYRQAPGKERELVAAINWSGTRTYYADSVKGRFTISRDNAKNTVYLQMNSLKTEDTAVYYCNADSRYRSFDYWGQGTQVTVSS”, which “polyreactivity (PSR sort gate)” value is on record?
The value was “high polyreactivity”.

Which “polyreactivity (PSR sort gate)” value does the source give for “QVQLVDSGGGLVQAGASLRLSCAASGSTLSYYTMGWYRQAPGKERELVAAISWRGGSTYYADSVKGRFTISRDNAKNTVYLQMNSLKPEDTAVYYCATAIRGSPDSSLYYYWGQGTQVTLSS” here?
Its value is “high polyreactivity”.

With “QVQLVDSGGGLVQAGCSIRITCSATGITFVANTKGWYRQEPVKERELVDTITSSGGSTYYADSVKGRFTISRDNAKNSVYLQMNSLKPEDTAVFYCAASDLRYRGNYVYLPSEYWGQGSQVTVSS” as the sequence, how does the “polyreactivity (PSR sort gate)” value read?
Its value is “low polyreactivity”.

Which “polyreactivity (PSR sort gate)” value does the source give for “QVQLVDSGGGLVQAGGILRLRFAASGYTFDKYAMGWYRQKPGKARELVAAITSLGGSKYYADSVKGRFTISRDHAKNTVYLQMNSLKPDVTAVYYCAAEYVAPVPRVHEEMYYWGQGTQVTVSS” here?
Its value is “high polyreactivity”.

With “QVQLVDSGGGLVQAGGILRLSCAASGLTFYDNAMGWYRQAPAKERELVAAISDSGGSTYYADSVKGRFTISRDNAKNTVFLQMNSLKPEDTAVYYCAAAGWQANWEYEYWGQGTQVTVSS” as the sequence, how does the “polyreactivity (PSR sort gate)” value read?
The value was “high polyreactivity”.

For “QVQLVDSGGGLVQAGGRLRLSCAASGFIYEPNAMGGYRQAPGKEMELVAAISSGGSTYADSVKGRFTISRDNAKNTVYLQMNSLKPEDTAVYYCAADSYYSVWGFYYWGQGTQVTVSS”, which “polyreactivity (PSR sort gate)” value is on record?
The value was “low polyreactivity”.

Which “polyreactivity (PSR sort gate)” value does the source give for “QVQLVDSGGGLVQAGGRLRLSCAASGRTFYRNAMGWDSQAPGKERELVAAITSGGSTYYADSVKGRFTISRDTAKNTGYLQMNSLKPEDTAVYYCAALRHALRYDYWGQGTQVTVSS” here?
The value was “low polyreactivity”.

With “QVQLVDSGGGLVQAGGRLRLSCAASGYILTHYAMGWYRQAPGKERELVAAITRVGNTNYADSVKGRFTISRDNAKNTVYLQMNSLKPEDTAVYSCAADGVASLFGDPPTEFDYWGQGTQVTVSS” as the sequence, how does the “polyreactivity (PSR sort gate)” value read?
The value was “low polyreactivity”.

For “QVQLVDSGGGLVQAGGSLRISCAASGLIFSKNVMGWYRQAPGKEREFVAAISQRGGSTYYADSVKGRFTISRDIAKNTVYLQMNSLKPEDTAVYYCAADNTVSHEDYWGQGTQVTVSS”, which “polyreactivity (PSR sort gate)” value is on record?
Its value is “high polyreactivity”.

For “QVQLVDSGGGLVQAGGSLRISCAASGNILIGNVMGWYRQAPGKERELVAAITSGGDTYYADSVKGRITISRDNAKNTVYLQMNSLKPEDTAVYYCAADRPGQPKYEYWGQGTQVTVSS”, which “polyreactivity (PSR sort gate)” value is on record?
The value was “low polyreactivity”.

With “QVQLVDSGGGLVQAGGSLRISCAASGYIFSANAMGWYRKAPGKEREFVAAISSTGGSTYYADSVKGRFTISRDTAKNTVYLQMNSLKTEDTSVYYFEAYIRRYFHYDYWGQGTQVTVSS” as the sequence, how does the “polyreactivity (PSR sort gate)” value read?
Its value is “high polyreactivity”.

For “QVQLVDSGGGLVQAGGSLRLSCAASGCTFGSYAMGWYRQAPGKERELVAGITGSGGRTYYADSVKGRFTISRDNAKNTVYLQMNSLKPEDTAVYYCATTGRRWYYPYHYWGQGTHVTVSS”, which “polyreactivity (PSR sort gate)” value is on record?
Its value is “high polyreactivity”.

With “QVQLVDSGGGLVQAGGSLRLSCAASGFIFDINAMGWYRQAPGKERELVAAISYSGGSTYYADSVKGRFTISRDNAKNTVYLQMNSLKPEDTAVYYCAADCGPDSDEGDYWGQGTQVTVSS” as the sequence, how does the “polyreactivity (PSR sort gate)” value read?
The value was “low polyreactivity”.

With “QVQLVDSGGGLVQAGGSLRLSCAASGFIFGKNAMGWYRQAPGKERELVAVISWRGSSTNYADSVKGRFTISRDNAKNTVYLQMNSLKPEDTAVYYCAARYPARGTLYYWGQGTQVTVSS” as the sequence, how does the “polyreactivity (PSR sort gate)” value read?
The value was “low polyreactivity”.

Which “polyreactivity (PSR sort gate)” value does the source give for “QVQLVDSGGGLVQAGGSLRLSCAASGFIFVKYAMGWYRQAPGKERELVAAITTSGTGTFYADSVKGRFTISRDNAKNTVYLQMNSLKPEDTAVYYCNALGHPGDDWGQGTQVTVSS” here?
The value was “low polyreactivity”.

Which “polyreactivity (PSR sort gate)” value does the source give for “QVQLVDSGGGLVQAGGSLRLSCAASGFILGSNVMGWYRQAPGIERELVAAISYSGGSTYYADSVKGRFTISRDNAMNTVYLQMNILKPEDTAVYYCNARPSDVWYYYWGQGTQVTVSS” here?
The value was “low polyreactivity”.

Which “polyreactivity (PSR sort gate)” value does the source give for “QVQLVDSGGGLVQAGGSLRLSCAASGFNFDRNTMGWYRKAPGKERELVATISSTGTTNYADSVKGRFTISRDNAKNTVYLQMNSLKPEDTAVYYCNAYPRWRYVSYYRSYRYDYWGQGTQVTVSS” here?
Its value is “high polyreactivity”.

With “QVQLVDSGGGLVQAGGSLRLSCAASGFTFGPYAMGWYRQAPGKERELGARITYRTGSTYYGDSVKGRFTISRDNAKNTVYLQINSLKPEDTAVYYCAAAYYCGQGTQVTVSS” as the sequence, how does the “polyreactivity (PSR sort gate)” value read?
The value was “high polyreactivity”.

With “QVQLVDSGGGLVQAGGSLRLSCAASGFTFSYYVMGWYRQAPGKERELVAAITSSGGSTYYADSVKGRFTISRDNAKNTVSLQMISRNPEDTAVYYCNALVLSSEYGYWGLGTQVTVSS” as the sequence, how does the “polyreactivity (PSR sort gate)” value read?
Its value is “high polyreactivity”.

— the nanobody polyreactivity screen of Harvey et al. (2022)
